*1 amine or outer side, *2 acyl side, *3 side chain or, on linkers, in order; H or OH if unused. Bridges are numbered along the chain shown (N, C = ends). [ ]: non-standard residue; d: D form. The star is where a group is joined. C20 diacid = O=C(O)CCCCCCCCCCCCCCCCCCC(=O)*; γGlu = O=C(O)[C@H](CCC(=O)[*:2])N[*:1]; Hyp = O=C(O)[C@@H]1C[C@@H](O)CN1; NMeI = CC[C@H](C)[C@H](NC)C(=O)O; Aad = N[C@@H](CCCC(=O)O)C(=O)O; Sar = CNCC(=O)O
T1: human amylin receptor 3 (hAMYR3), hCTR2 co-expressed with human receptor activity modifying protein 3 (hRAMP3) (human, UniProt P30988 25-474; O60896 24-148)
T1 sequence (looked up) 1: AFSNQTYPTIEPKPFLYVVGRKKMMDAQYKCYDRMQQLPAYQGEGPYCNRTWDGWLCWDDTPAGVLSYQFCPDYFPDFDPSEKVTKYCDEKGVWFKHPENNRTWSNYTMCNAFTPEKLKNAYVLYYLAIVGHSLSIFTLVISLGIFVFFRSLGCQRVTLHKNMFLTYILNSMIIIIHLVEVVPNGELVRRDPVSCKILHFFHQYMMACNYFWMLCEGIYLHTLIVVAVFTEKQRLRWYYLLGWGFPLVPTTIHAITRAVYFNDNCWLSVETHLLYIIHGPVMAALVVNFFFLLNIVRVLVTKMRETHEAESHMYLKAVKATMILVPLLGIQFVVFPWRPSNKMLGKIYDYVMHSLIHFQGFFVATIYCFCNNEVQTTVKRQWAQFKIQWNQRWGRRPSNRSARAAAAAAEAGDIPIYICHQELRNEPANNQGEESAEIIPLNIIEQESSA
T1 sequence (looked up) 2: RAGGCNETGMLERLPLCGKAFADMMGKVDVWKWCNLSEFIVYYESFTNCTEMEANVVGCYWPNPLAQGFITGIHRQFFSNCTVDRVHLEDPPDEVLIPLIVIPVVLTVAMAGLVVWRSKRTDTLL


Target: T1, human amylin receptor 3 (hAMYR3), hCTR2 …
Assay: cell-based or functional assay

Binder	hAMYR3 EC50 (nM); cAMP induction [nM]
{C20 diacid}-[γGlu]RCGTATCATERLAHFLQRSSF[Sar]A[NMeI]LSSTEVGSNTP-NH2 (disulfide 3-8; SMILES CC[C@H](C)[C@@H](C(=O)N[C@@H](CC(C)C)C(=O)N[C@@H](CO)C(=O)N[C@@H](CO)C(=O)N[C@H](C(=O)N[C@@H](CCC(=O)O)C(=O)N[C@H](C(=O)NCC(=O)N[C@@H](CO)C(=O)N[C@@H](CC(N)=O)C(=O)N[C@H](C(=O)N1CCC[C@H]1C(N)=O)[C@@H](C)O)C(C)C)[C@@H](C)O)N(C)C(=O)[C@H](C)NC(=O)CN(C)C(=O)[C@H](Cc1ccccc1)NC(=O)[C@H](CO)NC(=O)[C@H](CO)NC(=O)[C@H](CCCNC(=N)N)NC(=O)[C@H](CCC(N)=O)NC(=O)[C@H](CC(C)C)NC(=O)[C@H](Cc1ccccc1)NC(=O)[C@H](Cc1c[nH]cn1)NC(=O)[C@H](C)NC(=O)[C@H](CC(C)C)NC(=O)[C@H](CCCNC(=N)N)NC(=O)[C@H](CCC(=O)O)NC(=O)[C@@H](NC(=O)[C@H](C)NC(=O)[C@@H]1CSSC[C@H](NC(=O)[C@H](CCCNC(=N)N)NC(=O)CC[C@H](NC(=O)CCCCCCCCCCCCCCCCCCC(=O)O)C(=O)O)C(=O)NCC(=O)N[C@@H]([C@@H](C)O)C(=O)N[C@@H](C)C(=O)N[C@@H]([C@@H](C)O)C(=O)N1)[C@@H](C)O) [[19CD]-isoGlu-R-C( )-GTAT-C( )-ATERLAHFLQRSSF-Gly(Me)-A-Ile(Me)-LSSTEVGSNTP-NH2 (Compd. 78)]	0.24
{C20 diacid}-[γGlu]RCPTATCATERLAHFLQRSSF[Sar]A[NMeI]LSSTEVGS[Aad]T[Hyp]-NH2 (disulfide 3-8; SMILES CC[C@H](C)[C@@H](C(=O)N[C@@H](CC(C)C)C(=O)N[C@@H](CO)C(=O)N[C@@H](CO)C(=O)N[C@H](C(=O)N[C@@H](CCC(=O)O)C(=O)N[C@H](C(=O)NCC(=O)N[C@@H](CO)C(=O)N[C@@H](CCCC(=O)O)C(=O)N[C@H](C(=O)N1C[C@H](O)C[C@H]1C(N)=O)[C@@H](C)O)C(C)C)[C@@H](C)O)N(C)C(=O)[C@H](C)NC(=O)CN(C)C(=O)[C@H](Cc1ccccc1)NC(=O)[C@H](CO)NC(=O)[C@H](CO)NC(=O)[C@H](CCCNC(=N)N)NC(=O)[C@H](CCC(N)=O)NC(=O)[C@H](CC(C)C)NC(=O)[C@H](Cc1ccccc1)NC(=O)[C@H](Cc1c[nH]cn1)NC(=O)[C@H](C)NC(=O)[C@H](CC(C)C)NC(=O)[C@H](CCCNC(=N)N)NC(=O)[C@H](CCC(=O)O)NC(=O)[C@@H](NC(=O)[C@H](C)NC(=O)[C@@H]1CSSC[C@H](NC(=O)[C@H](CCCNC(=N)N)NC(=O)CC[C@H](NC(=O)CCCCCCCCCCCCCCCCCCC(=O)O)C(=O)O)C(=O)N2CCC[C@H]2C(=O)N[C@@H]([C@@H](C)O)C(=O)N[C@@H](C)C(=O)N[C@@H]([C@@H](C)O)C(=O)N1)[C@@H](C)O) [[19CD]-isoGlu-R-C( )-PTAT-C( )-ATERLAHFLQRSSF-Gly(Me)-A-Ile(Me)-LSSTEVGS-Aad-T-Hyp-NH2 (Compd. 76)]	0.49
{C20 diacid-γGlu}-RCNTATCATQRLAHFLQRF[Sar]A[NMeI]LSSTEVGSGT[Hyp]-NH2 (disulfide 2-7; SMILES CC[C@H](C)[C@@H](C(=O)N[C@@H](CC(C)C)C(=O)N[C@@H](CO)C(=O)N[C@@H](CO)C(=O)N[C@H](C(=O)N[C@@H](CCC(=O)O)C(=O)N[C@H](C(=O)NCC(=O)N[C@@H](CO)C(=O)NCC(=O)N[C@H](C(=O)N1C[C@H](O)C[C@H]1C(N)=O)[C@@H](C)O)C(C)C)[C@@H](C)O)N(C)C(=O)[C@H](C)NC(=O)CN(C)C(=O)[C@H](Cc1ccccc1)NC(=O)[C@H](CCCNC(=N)N)NC(=O)[C@H](CCC(N)=O)NC(=O)[C@H](CC(C)C)NC(=O)[C@H](Cc1ccccc1)NC(=O)[C@H](Cc1c[nH]cn1)NC(=O)[C@H](C)NC(=O)[C@H](CC(C)C)NC(=O)[C@H](CCCNC(=N)N)NC(=O)[C@H](CCC(N)=O)NC(=O)[C@@H](NC(=O)[C@H](C)NC(=O)[C@@H]1CSSC[C@H](NC(=O)[C@H](CCCNC(=N)N)NC(=O)CC[C@H](NC(=O)CCCCCCCCCCCCCCCCCCC(=O)O)C(=O)O)C(=O)N[C@@H](CC(N)=O)C(=O)N[C@@H]([C@@H](C)O)C(=O)N[C@@H](C)C(=O)N[C@@H]([C@@H](C)O)C(=O)N1)[C@@H](C)O) [[19CD]-isoGlu-R-C( )-NTAT-C( )-ATQRLAHFLQRF-Gly(Me)-A-Ile(Me)-LSSTEVGSGT-Hyp-NH2 (Compd. 79)]	0.23
{C20 diacid-γGlu}-RCNTATCATQRLADFLQRSSF[Sar]A[NMeI]LSSTEVGSGT[Hyp]-NH2 (disulfide 2-7; SMILES CC[C@H](C)[C@@H](C(=O)N[C@@H](CC(C)C)C(=O)N[C@@H](CO)C(=O)N[C@@H](CO)C(=O)N[C@H](C(=O)N[C@@H](CCC(=O)O)C(=O)N[C@H](C(=O)NCC(=O)N[C@@H](CO)C(=O)NCC(=O)N[C@H](C(=O)N1C[C@H](O)C[C@H]1C(N)=O)[C@@H](C)O)C(C)C)[C@@H](C)O)N(C)C(=O)[C@H](C)NC(=O)CN(C)C(=O)[C@H](Cc1ccccc1)NC(=O)[C@H](CO)NC(=O)[C@H](CO)NC(=O)[C@H](CCCNC(=N)N)NC(=O)[C@H](CCC(N)=O)NC(=O)[C@H](CC(C)C)NC(=O)[C@H](Cc1ccccc1)NC(=O)[C@H](CC(=O)O)NC(=O)[C@H](C)NC(=O)[C@H](CC(C)C)NC(=O)[C@H](CCCNC(=N)N)NC(=O)[C@H](CCC(N)=O)NC(=O)[C@@H](NC(=O)[C@H](C)NC(=O)[C@@H]1CSSC[C@H](NC(=O)[C@H](CCCNC(=N)N)NC(=O)CC[C@H](NC(=O)CCCCCCCCCCCCCCCCCCC(=O)O)C(=O)O)C(=O)N[C@@H](CC(N)=O)C(=O)N[C@@H]([C@@H](C)O)C(=O)N[C@@H](C)C(=O)N[C@@H]([C@@H](C)O)C(=O)N1)[C@@H](C)O) [[19CD]-isoGlu-R-C( )-NTAT-C( )-ATQRLADFLQRSSF-Gly(Me)-A-Ile(Me)-LSSTEVGSGT-Hyp-NH2 (Compd. 81)]	0.23
{C20 diacid}-[γGlu]RCGTATCATERLAHFLERSSF[Sar]A[NMeI]LSSTEVGSNT[Hyp]-NH2 (disulfide 3-8) [[19CD]-isoGlu-R-C( )-GTAT-C( )-ATERLAHFLERSSF-Gly(Me)-A-Ile(Me)-LSSTEVGSNT-Hyp-NH2 (Compd. 8)]	0.36
{C20 diacid-γGlu}-RCNTATCATQRLADFLQRSSF[Sar]A[NMeI]LSSTEVGSGTP-NH2 (disulfide 2-7; SMILES CC[C@H](C)[C@@H](C(=O)N[C@@H](CC(C)C)C(=O)N[C@@H](CO)C(=O)N[C@@H](CO)C(=O)N[C@H](C(=O)N[C@@H](CCC(=O)O)C(=O)N[C@H](C(=O)NCC(=O)N[C@@H](CO)C(=O)NCC(=O)N[C@H](C(=O)N1CCC[C@H]1C(N)=O)[C@@H](C)O)C(C)C)[C@@H](C)O)N(C)C(=O)[C@H](C)NC(=O)CN(C)C(=O)[C@H](Cc1ccccc1)NC(=O)[C@H](CO)NC(=O)[C@H](CO)NC(=O)[C@H](CCCNC(=N)N)NC(=O)[C@H](CCC(N)=O)NC(=O)[C@H](CC(C)C)NC(=O)[C@H](Cc1ccccc1)NC(=O)[C@H](CC(=O)O)NC(=O)[C@H](C)NC(=O)[C@H](CC(C)C)NC(=O)[C@H](CCCNC(=N)N)NC(=O)[C@H](CCC(N)=O)NC(=O)[C@@H](NC(=O)[C@H](C)NC(=O)[C@@H]1CSSC[C@H](NC(=O)[C@H](CCCNC(=N)N)NC(=O)CC[C@H](NC(=O)CCCCCCCCCCCCCCCCCCC(=O)O)C(=O)O)C(=O)N[C@@H](CC(N)=O)C(=O)N[C@@H]([C@@H](C)O)C(=O)N[C@@H](C)C(=O)N[C@@H]([C@@H](C)O)C(=O)N1)[C@@H](C)O) [[19CD]-isoGlu-R-C( )-NTAT-C( )-ATQRLADFLQRSSF-Gly(Me)-A-Ile(Me)-LSSTEVGSGTP-NH2 (Compd. 80)]	0.28
{C20 diacid}-[γGlu]RCGTATCATERLAHFLQRF[Sar]A[NMeI]LSSTEVGSNT[Hyp]-NH2 (disulfide 3-8; SMILES CC[C@H](C)[C@@H](C(=O)N[C@@H](CC(C)C)C(=O)N[C@@H](CO)C(=O)N[C@@H](CO)C(=O)N[C@H](C(=O)N[C@@H](CCC(=O)O)C(=O)N[C@H](C(=O)NCC(=O)N[C@@H](CO)C(=O)N[C@@H](CC(N)=O)C(=O)N[C@H](C(=O)N1C[C@H](O)C[C@H]1C(N)=O)[C@@H](C)O)C(C)C)[C@@H](C)O)N(C)C(=O)[C@H](C)NC(=O)CN(C)C(=O)[C@H](Cc1ccccc1)NC(=O)[C@H](CCCNC(=N)N)NC(=O)[C@H](CCC(N)=O)NC(=O)[C@H](CC(C)C)NC(=O)[C@H](Cc1ccccc1)NC(=O)[C@H](Cc1c[nH]cn1)NC(=O)[C@H](C)NC(=O)[C@H](CC(C)C)NC(=O)[C@H](CCCNC(=N)N)NC(=O)[C@H](CCC(=O)O)NC(=O)[C@@H](NC(=O)[C@H](C)NC(=O)[C@@H]1CSSC[C@H](NC(=O)[C@H](CCCNC(=N)N)NC(=O)CC[C@H](NC(=O)CCCCCCCCCCCCCCCCCCC(=O)O)C(=O)O)C(=O)NCC(=O)N[C@@H]([C@@H](C)O)C(=O)N[C@@H](C)C(=O)N[C@@H]([C@@H](C)O)C(=O)N1)[C@@H](C)O) [[19CD]-isoGlu-R-C( )-GTAT-C( )-ATERLAHFLQRF-Gly(Me)-A-Ile(Me)-LSSTEVGSNT-Hyp-NH2 (Compd. 77)]	0.42

Source: patent US20160272693A1 (ZEALAND PHARMA A S, published 2016)
